Test results: US20080125362A1, “Method of screening compound preventing cells from infection with Hepatitis C virus (HCV)” (Japan Tobacco Inc., priority 2004, published 2008)

Assays:
ΔG/SEAP/HCV E1E2 [1] = experiment: Effects of solubilized FGFR-1 to FGFR-4 (FGFR/Fc) on infectivity of pseudotyped HCV to HepG2 cells; format: cell-based; conditions: FGFR/Fc mixed with virus 1 hour before inoculation, FIG. 5
ΔG/SEAP/HCV E1E2 [2] = experiment: Effects of FGF family members on infectivity of pseudotyped HCV to HepG2 cells (SEAP reporter); format: cell-based; conditions: for IC50 ΔG/SEAP/HCV E1E2: growth factor added 1 hour before virus, SEAP in supernatant after 24 hours; for infection of ΔG/SEAP/HCV E1E2: result in words

Molecule	infectivity of ΔG/SEAP/HCV E1E2 (ΔG/SEAP/HCV E1E2 [1])	IC50 ΔG/SEAP/HCV E1E2 (ΔG/SEAP/HCV E1E2 [2]) [mg/L]	infection of ΔG/SEAP/HCV E1E2 (ΔG/SEAP/HCV E1E2 [2])
FGFR-4	inhibited	–	–
human FGF 2 (basic): human-derived fibroblast growth factor 2 (basic), commercial product of Pepro Tech	–	1.36	inhibited
human FGF 18: human-derived fibroblast growth factor 18, commercial product of Pepro Tech	–	>10	–
human FGF 20: human-derived fibroblast growth factor 20, commercial product of Pepro Tech	–	>10	–
human FGF 10: human-derived fibroblast growth factor 10, commercial product of Pepro Tech (protein) LGQDMVSPEATNSSSSSFSSPSSAGRHVRSYNHLQGDVRWRKLFSFTKYFLKIEKNGKVSGTKKENCPYSILEITSVEIGVVAVKAINSNYYLAMNKKGKLYGSKEFNNDCKLKERIEENGYNTYASFNWQHNGRQMYVALNGKGAPRRGQKTRRKNTSAHFLPMVVHS	–	>10	–
human FGF 7 (KGF): human-derived fibroblast growth factor 7 (KGF), commercial product of Pepro Tech (protein) CNDMTPEQMATNVNCSSPERHTRSYDYMEGGDIRVRRLFCRTQWYLRIDKRGKVKGTQEMKNNYNIMEIRTVAVGIVAIKGVESEFYLAMNKEGKLYAKKECNEDCNFKELILENHYNTYASAKWTHNGGEMFVALNQKGIPVRGKKTKKEQKTAHFLPMAIT	–	2.32	inhibited
human FGF 8: human-derived fibroblast growth factor 8, commercial product of Pepro Tech (protein) QVTVQSSPNFTQHVREQSLVTDQLSRRLIRTYQLYSRTSGKHVQVLANKRINAMAEDGDPFAKLIVETDTFGSRVRVRGAETGLYICMNKKGKLIAKSNGKGKDCVFTEIVLENNYTALQNAKYEGWYMAFTRKGRPRKGSKTRQHQREVHFMKRLPRGHHTTEQSLRFEFLNYPPFTRSLRGSQRTWAPEPR	–	8.51	inhibited
human FGF 17: human-derived fibroblast growth factor 17, commercial product of Pepro Tech (protein) TQGENHPSPNFNQYVRDQGAMTDQLSRRQIREYQLYSRTSGKHVQVTGRRISATAEDGNKFAKLIVETDTFGSRVRIKGAESEKYICMNKRGKLIGKPSGKSKDCVFTEIVLENNYTAFQNARHEGWFMAFTRQGRPRQASRSRQNQREAHFIKRLYQGQLPFPNHAEKQKQFEFVGSAPTRRTKRTRRPQPLT	–	7.41	inhibited
